Reference: patent publication US20080280834A1 (UNIVERSITY OF PITTSBURGH OF THE COMMONWEALTH SYSTEM OF …, published 2008)
No end group written: not given here.

B1: YLGA (peptide)
peptide: YLGA
modifications: not fully specified
notes: Synthetic peptide; also called original tyrosine peptide
B2: YLGG (peptide)
peptide: YLGG
B3: HHI YLG ATN YIY (peptide)
peptide: HHIYLGATNYIY
B4: HHI YLG ATN YI (peptide)
peptide: HHIYLGATNYI
B5: YLG ATN YIY (peptide)
peptide: YLGATNYIY
B6: HHI YLG ATN (peptide)
peptide: HHIYLGATN
B7: HHI YLG ATN Y (peptide)
peptide: HHIYLGATNY
B8: I YLG ATN YIY (peptide)
peptide: IYLGATNYIY
B9: HI YLG ATN YIY (peptide)
peptide: HIYLGATNYIY
B10: HHI YLG AT (peptide)
peptide: HHIYLGAT
B11: HHI YLG A (peptide)
peptide: HHIYLGA
B12: WLGA (peptide)
peptide: WLGA
B13: SLGA (peptide)
peptide: SLGA
B14: LLGA (peptide)
peptide: LLGA
B15: FLGA (peptide)
peptide: FLGA
B16: YAGA (peptide)
peptide: YAGA
B17: YLIA (peptide)
peptide: YLIA
B18: YLLA (peptide)
peptide: YLLA
B19: YLAA (peptide)
peptide: YLAA
B20: YFGA (peptide)
peptide: YFGA
B21: YIGA (peptide)
peptide: YIGA
B22: YTGA (peptide)
peptide: YTGA
B23: YGGA (peptide)
peptide: YGGA
B24: YVGA (peptide)
peptide: YVGA
B25: YLGL (peptide)
peptide: YLGL
B26: YLGT (peptide)
peptide: YLGT
B27: YLGI (peptide)
peptide: YLGI
B28: ALGA (peptide)
peptide: ALGA
B29: KLGA (peptide)
peptide: KLGA
B30: TLGA (peptide)
peptide: TLGA
B31: ELGA (peptide)
peptide: ELGA
B32: ILGA (peptide)
peptide: ILGA
B33: DLGA (peptide)
peptide: DLGA
B34: GLGA (peptide)
peptide: GLGA

biological target: T1, TNFR1; experiment: method for TNFR not described
T1 construct: The same entry is used for the Kd and for the EC50 rows
T1 sequence (P19438 whole entry): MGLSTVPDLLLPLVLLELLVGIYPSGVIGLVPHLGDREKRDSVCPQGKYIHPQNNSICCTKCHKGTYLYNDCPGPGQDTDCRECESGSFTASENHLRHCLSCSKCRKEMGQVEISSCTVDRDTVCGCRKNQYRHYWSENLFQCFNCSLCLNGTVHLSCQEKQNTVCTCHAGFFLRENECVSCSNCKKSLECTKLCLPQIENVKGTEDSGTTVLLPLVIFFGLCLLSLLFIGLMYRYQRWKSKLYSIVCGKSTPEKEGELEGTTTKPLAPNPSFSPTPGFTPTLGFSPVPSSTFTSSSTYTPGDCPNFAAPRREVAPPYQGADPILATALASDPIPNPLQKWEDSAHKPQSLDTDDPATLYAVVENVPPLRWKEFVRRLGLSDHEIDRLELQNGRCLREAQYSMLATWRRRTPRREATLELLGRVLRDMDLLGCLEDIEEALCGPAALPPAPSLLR

| Kd [nM] | Binder |
| --- | --- |
| 6 | B1 |
| 4 | B2 |

biological target: T2, Recombinant Human Fas/TNFRSF6/Fc Chimera (human, UniProt P25445 26-173); experiment: ELISA, peptide coated, Fas/Fc added
T2 construct: also called FasR; Fas receptor; Fc part of the bought chimera not given
T2 sequence (looked up): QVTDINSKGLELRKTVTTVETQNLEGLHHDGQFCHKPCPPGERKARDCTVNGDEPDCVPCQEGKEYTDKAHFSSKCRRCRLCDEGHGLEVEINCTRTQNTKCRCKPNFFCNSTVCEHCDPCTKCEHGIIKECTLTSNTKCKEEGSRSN
Procedure: (§1) ELISA. Peptides were dissolved in a coating buffer solution (0.05M Sodium Carbonate, 0.02% Sodium Azide, pH=9.6) at the appropriate concentrations to a final concentration of 10 μM. Dilutions were made accordingly to reach desired experimental concentrations. 100 μl aliquots of the peptide solution was added to each well and incubated for 2 hours. All incubations were carried out with shaking at T=37° C. Wells were washed by pipetting solution out of each well, adding 200 μL of washing solution (PBS-Tween; 0.5%), shaking for 15 minutes and emptying each well. Three wash cycles were carried out prior to addition of 200 μL of blocking solution (1% BSA in PBS buffer) to each well followed by incubation for 2 hours. Wells were then washed (as per above procedure) three times. Protein solutions of the appropriate concentrations (Vₛₒₗᵤₜᵢₒₙ 50 μL) were then added and incubated for 2 hours. After washing three times (as per above protocol) Fas specific antibody solution (˜1:20,000) was added to each well in 100 μL aliquots and incubated for 1 hour. After washing three times (as per above protocol) IgM-HRP solution (˜1:20,000) was added to each well in 100 μL aliquots and incubated (with shaking) for 1 hour at T=37° C. Wells were washed three times prior to the addition of ready-to-use TMD, followed by incubation for 30 minutes. 2M H₂SO₄ (3 drops) was added to stop colorimetric reaction and the absorption was taken at 450 nm on a Perkin-Elmer, Victor3 Model automated plate reader. Data was analyzed using standard regression fits in Excel.
Effect of Flanking Residues on Binding Affinities. […] While this work has shown that tetrapeptides based from the original protein sequence can inhibit the FasL/FasR cell death pathway at low nM concentrations, the ability to improve upon this was examined by looking at the extended sequence on both the N-terminal and C-terminal side of the YLGA (SEQ ID NO:1) motif. Peptides up to 12 amino acids in length were synthesized based on the α-Met sequence and their Kₐ values measured for the Fas receptor, Table 7.

| Ka [M⁻¹] | Binder |
| --- | --- |
| 3e+08 | B3 |
| 3e+08 | B4 |
| 3e+08 | B5 |
| 3e+08 | B6 |
| 3e+08 | B7 |
| 3e+08 | B8 |
| 3e+08 | B9 |
| 3e+08 | B10 |
| 3e+08 | B11 |

biological target: T2, Recombinant Human Fas/TNFRSF6/Fc Chimera; experiment: ELISA, peptide coated, Fas/Fc added; remark: another data set of the same source
Procedure: as §1
(§2) Effect of Amino Acid Substitution on Binding Affinities. […] In the first series of peptides, alterations were made only to the tyrosine residue while retaining the final three amino acids homologous in the parent sequence (LGA).

| Ka [M⁻¹] | Kd [nM] | Binder |
| --- | --- | --- |
| 2e+08 | 5 | B1 |
| 8e+07 | 13 | B12 |
| 2e+08 | 5 | B13 |
| 1e+07 | 88 | B14 |
| 1e+08 | 10 | B15 |
| 4e+07 | 28 | B2 |
| 3e+08 | 4 | B16 |

biological target: T2, Recombinant Human Fas/TNFRSF6/Fc Chimera; experiment: ELISA, peptide coated, Fas/Fc added; remark: another data set of the same source
Procedure: as §1, with “After washing three times (as per above protocol) IgM-HRP solution (˜1:20,000) was added to each well in 100 μL aliquots and incubated (with shaking) for 1 hour at T=37° C.” left out

| Kd [nM] | Binder |
| --- | --- |
| 5 | B1 |
| 28 | B2 |

biological target: T2, Recombinant Human Fas/TNFRSF6/Fc Chimera; experiment: ELISA, peptide coated, Fas/Fc added; remark: another data set of the same source
Procedure: as §1, §2

| Ka [M⁻¹] | Binder | binding result |
| --- | --- | --- |
| 2e+08 | B1 |  |
|  | B17 | no binding (tested: concentration range of 1 nM to 1 µM) |
| 1e+06 | B18 |  |
| 1e+06 | B19 |  |

biological target: T2, Recombinant Human Fas/TNFRSF6/Fc Chimera; experiment: ELISA, peptide coated, Fas/Fc added; remark: another data set of the same source
Procedure: as §1, §2

| Ka [M⁻¹] | Binder | binding result |
| --- | --- | --- |
| 2e+08 | B1 |  |
|  | B20 | no binding (tested: concentration range of 1 nM to 1 µM) |
| 2e+08 | B21 |  |
|  | B22 | no binding (tested: concentration range of 1 nM to 1 µM) |
| 1e+07 | B23 |  |
| 3e+08 | B16 |  |
| 2e+08 | B24 |  |

biological target: T1, TNFR1; experiment: cell-based or functional assay

| EC50 (TNFR) [nM] | Binder |
| --- | --- |
| 11 | B1 |
| 8 | B2 |

biological target: T3, Fas receptor on Jurkat cells (UniProt P25445 26-335, limits assumed); experiment: cell-based or functional assay
T3 sequence (looked up): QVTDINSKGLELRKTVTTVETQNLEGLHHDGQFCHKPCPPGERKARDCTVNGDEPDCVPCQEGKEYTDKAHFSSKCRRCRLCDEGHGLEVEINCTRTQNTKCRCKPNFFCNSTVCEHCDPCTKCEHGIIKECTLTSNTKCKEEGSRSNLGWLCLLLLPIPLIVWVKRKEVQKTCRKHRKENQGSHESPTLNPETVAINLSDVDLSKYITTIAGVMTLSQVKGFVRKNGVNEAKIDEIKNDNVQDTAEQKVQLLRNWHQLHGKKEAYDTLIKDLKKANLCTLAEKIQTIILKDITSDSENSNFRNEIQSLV

| EC50 (FasR) [nM] | Binder |
| --- | --- |
| 6 | B1 |
| 52 | B2 |

biological target: T2, Recombinant Human Fas/TNFRSF6/Fc Chimera; experiment: ELISA, peptide coated, Fas/Fc added; remark: another data set of the same source
Procedure: as §1, §2

| Ka [M⁻¹] | Binder | binding result |
| --- | --- | --- |
| 2e+08 | B1 |  |
| 3e+07 | B25 |  |
| 4e+07 | B2 |  |
|  | B26 | no binding (tested: concentration range of 1 nM to 1 µM) |
| 3e+07 | B27 |  |

biological target: T3, Fas receptor on Jurkat cells; experiment: cell-based or functional assay; remark: another data set of the same source

| Binder | EC50 (nM), cell viability of Jurkat cells exposed to recombinant FasL [nM] |
| --- | --- |
| B1 | 6 |
| B13 | 6 |
| B14 | 93 |
| B2 | 52 |
| B16 | 6 |

biological target: T2, Recombinant Human Fas/TNFRSF6/Fc Chimera; experiment: ELISA, peptide coated, Fas/Fc added; remark: another data set of the same source
Procedure: as §1, §2

| Ka [M⁻¹] | fold decrease in Ka [fold] | fold drop off against YLGA [fold] | times less affinity than YLGA [times] | Binder | binding result |
| --- | --- | --- | --- | --- | --- |
| 2e+08 |  |  |  | B1 |  |
|  |  |  |  | B28 | no binding (tested: concentration range of 1 nM to 1 µM) |
| 8e+07 |  |  |  | B12 |  |
| 2e+08 |  |  |  | B13 |  |
| 1e+07 |  |  |  | B14 |  |
|  | 20 |  |  | B18 |  |
| 8e+06 |  |  |  | B29 |  |
| 2e+08 |  |  |  | B30 |  |
|  | 20 |  |  | B23 |  |
| 5e+07 |  | 4 |  | B31 |  |
| 1e+08 |  |  |  | B15 |  |
| 9e+06 |  |  |  | B32 |  |
|  |  |  | ~10 | B25 |  |
|  |  |  | ~10 | B2 |  |
| 5e+07 |  | 4 |  | B33 |  |
|  | 20 |  |  | B19 |  |
|  |  |  |  | B34 | no binding (tested: concentration range of 1 nM to 1 µM) |
|  |  |  | ~10 | B27 |  |
